The target of the experiment is purified recombinant HIS epitope-tagged NOTCH3 extracellular domain (human, UniProt Q9UM47 40-1643, glycosylated). As to the kind of experiment: SPR.
purified recombinant HIS epitope-tagged NOTCH3 extracellular domain, sequence (Q9UM47 40-1643): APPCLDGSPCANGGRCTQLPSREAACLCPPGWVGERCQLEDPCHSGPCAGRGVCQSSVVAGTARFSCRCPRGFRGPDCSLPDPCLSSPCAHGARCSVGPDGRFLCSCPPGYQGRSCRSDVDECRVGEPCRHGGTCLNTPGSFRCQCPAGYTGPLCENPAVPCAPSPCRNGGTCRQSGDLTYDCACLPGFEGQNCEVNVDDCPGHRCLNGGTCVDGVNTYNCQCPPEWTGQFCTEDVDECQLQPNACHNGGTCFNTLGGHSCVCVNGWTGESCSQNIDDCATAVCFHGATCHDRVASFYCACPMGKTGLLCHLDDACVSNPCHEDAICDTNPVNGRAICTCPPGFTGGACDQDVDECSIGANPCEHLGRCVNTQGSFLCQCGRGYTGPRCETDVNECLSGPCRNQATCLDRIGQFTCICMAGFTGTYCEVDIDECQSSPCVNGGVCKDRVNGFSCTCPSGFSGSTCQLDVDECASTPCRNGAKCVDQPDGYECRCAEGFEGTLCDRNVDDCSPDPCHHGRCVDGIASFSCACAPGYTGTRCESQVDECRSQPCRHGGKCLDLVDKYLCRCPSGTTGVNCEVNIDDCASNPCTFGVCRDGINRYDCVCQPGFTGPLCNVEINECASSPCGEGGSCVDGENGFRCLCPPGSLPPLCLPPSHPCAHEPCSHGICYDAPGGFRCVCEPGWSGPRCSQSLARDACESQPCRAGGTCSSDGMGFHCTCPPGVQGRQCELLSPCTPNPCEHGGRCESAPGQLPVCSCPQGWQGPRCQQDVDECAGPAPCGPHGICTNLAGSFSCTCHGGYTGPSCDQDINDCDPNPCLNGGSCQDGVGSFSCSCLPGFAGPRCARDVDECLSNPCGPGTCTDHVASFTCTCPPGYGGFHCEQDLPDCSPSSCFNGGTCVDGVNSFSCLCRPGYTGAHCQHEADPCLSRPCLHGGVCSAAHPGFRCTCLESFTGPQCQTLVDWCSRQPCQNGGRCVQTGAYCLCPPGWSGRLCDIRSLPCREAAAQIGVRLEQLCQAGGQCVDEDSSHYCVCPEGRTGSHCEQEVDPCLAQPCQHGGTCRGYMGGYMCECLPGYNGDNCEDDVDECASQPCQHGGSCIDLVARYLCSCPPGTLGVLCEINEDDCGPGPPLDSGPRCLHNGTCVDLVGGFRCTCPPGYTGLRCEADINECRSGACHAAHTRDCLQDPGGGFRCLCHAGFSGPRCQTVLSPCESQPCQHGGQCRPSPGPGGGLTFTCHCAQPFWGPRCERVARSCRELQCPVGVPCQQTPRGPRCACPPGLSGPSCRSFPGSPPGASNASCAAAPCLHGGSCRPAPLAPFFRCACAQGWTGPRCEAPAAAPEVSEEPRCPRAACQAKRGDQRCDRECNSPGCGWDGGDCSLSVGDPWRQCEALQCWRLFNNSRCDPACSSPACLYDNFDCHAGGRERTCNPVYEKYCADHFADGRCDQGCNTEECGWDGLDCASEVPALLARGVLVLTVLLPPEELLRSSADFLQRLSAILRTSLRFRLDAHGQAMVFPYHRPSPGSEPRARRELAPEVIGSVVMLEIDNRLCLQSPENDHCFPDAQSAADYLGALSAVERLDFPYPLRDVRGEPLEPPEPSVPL

Take EKYGGGHFADGR [control peptide (EKYGGGHFADGR)]: the dissociation constant (Kd) came to 1180 nM. The result for EKYCADHFADGR [N34 peptide] reads 13.1 nM.

The values above are taken from publication PMC13193388 (2025).
